Key:
[1] = target: KirBac3.1 A133C-T136C (Cys-less background C262S, C71V, C119V), disulfide-linked (UniProt D9N164); assay: native MS; 200 mM ammonium acetate pH 8.0, 0.5% C8E4; Q-ToF and QExactive; collision-induced dissociation in the gas phase on the Q-ToF
[2] = target: KirBac3.1 A133C-T136C (Cys-less background C262S, C71V, C119V), disulfide-linked (UniProt D9N164); assay: cross-linking; purified cysteine-pair mutants at 0.03-4 mg/ml in 20 mM TRIS pH 8.0, 150 mM KCl, 0.02% DDM; MTS-1-MTS 0.5 mM, dibromobimane 2.5 mM or CuSO4 1 mM, room temperature, 30 min; read by SDS-PAGE
[3] = target: KirBac3.1 S129C-F135C (Cys-less background C262S, C71V, C119V) crosslinked with MTS-1-MTS (UniProt D9N164); assay: native MS; 200 mM ammonium acetate pH 8.0, 0.5% C8E4; Q-ToF and QExactive; collision-induced dissociation in the gas phase on the Q-ToF
[4] = target: KirBac3.1 S129C-F135C (Cys-less background C262S, C71V, C119V) crosslinked with MTS-1-MTS (UniProt D9N164); assay: cross-linking; purified cysteine-pair mutants at 0.03-4 mg/ml in 20 mM TRIS pH 8.0, 150 mM KCl, 0.02% DDM; MTS-1-MTS 0.5 mM, dibromobimane 2.5 mM or CuSO4 1 mM, room temperature, 30 min; read by SDS-PAGE
[5] = target: KirBac3.1 S129C-F135C (Cys-less background C262S, C71V, C119V) crosslinked with dibromobimane (UniProt D9N164); assay: native MS; 200 mM ammonium acetate pH 8.0, 0.5% C8E4; Q-ToF and QExactive; collision-induced dissociation in the gas phase on the Q-ToF
[6] = target: KirBac3.1 S129C-F135C (Cys-less background C262S, C71V, C119V) crosslinked with dibromobimane (UniProt D9N164); assay: cross-linking; purified cysteine-pair mutants at 0.03-4 mg/ml in 20 mM TRIS pH 8.0, 150 mM KCl, 0.02% DDM; MTS-1-MTS 0.5 mM, dibromobimane 2.5 mM or CuSO4 1 mM, room temperature, 30 min; read by SDS-PAGE
[7] = target: KirBac3.1 A133C-T136C (Cys-less background C262S, C71V, C119V) crosslinked with dibromobimane (UniProt D9N164); assay: native MS; 200 mM ammonium acetate pH 8.0, 0.5% C8E4; Q-ToF and QExactive; collision-induced dissociation in the gas phase on the Q-ToF
[8] = target: KirBac3.1 A133C-T136C (Cys-less background C262S, C71V, C119V) crosslinked with dibromobimane (UniProt D9N164); assay: cross-linking; purified cysteine-pair mutants at 0.03-4 mg/ml in 20 mM TRIS pH 8.0, 150 mM KCl, 0.02% DDM; MTS-1-MTS 0.5 mM, dibromobimane 2.5 mM or CuSO4 1 mM, room temperature, 30 min; read by SDS-PAGE
[9] = target: KirBac3.1 A133C-T136C (Cys-less background C262S, C71V, C119V) crosslinked with MTS-1-MTS (UniProt D9N164); assay: native MS; 200 mM ammonium acetate pH 8.0, 0.5% C8E4; Q-ToF and QExactive; collision-induced dissociation in the gas phase on the Q-ToF
[10] = target: KirBac3.1 A133C-T136C (Cys-less background C262S, C71V, C119V) crosslinked with MTS-1-MTS (UniProt D9N164); assay: cross-linking; purified cysteine-pair mutants at 0.03-4 mg/ml in 20 mM TRIS pH 8.0, 150 mM KCl, 0.02% DDM; MTS-1-MTS 0.5 mM, dibromobimane 2.5 mM or CuSO4 1 mM, room temperature, 30 min; read by SDS-PAGE
[11] = target: KirBac3.1 S129C-F135C (Cys-less background C262S, C71V, C119V), disulfide-linked (UniProt D9N164); assay: native MS; 200 mM ammonium acetate pH 8.0, 0.5% C8E4; Q-ToF and QExactive; collision-induced dissociation in the gas phase on the Q-ToF
[12] = target: KirBac3.1 S129C-F135C (Cys-less background C262S, C71V, C119V), disulfide-linked (UniProt D9N164); assay: cross-linking; purified cysteine-pair mutants at 0.03-4 mg/ml in 20 mM TRIS pH 8.0, 150 mM KCl, 0.02% DDM; MTS-1-MTS 0.5 mM, dibromobimane 2.5 mM or CuSO4 1 mM, room temperature, 30 min; read by SDS-PAGE

KirBac3.1 A133C-T136C (Cys-less background C262S, C71V, C119V), disulfide-linked (from UniProt D9N164 1-295) (natural protein)
stoichiometry N [1]: 4
stoichiometry N [2]: 4

KirBac3.1 S129C-F135C (Cys-less background C262S, C71V, C119V) crosslinked with MTS-1-MTS (from UniProt D9N164 1-295) (natural protein)
stoichiometry N [3]: 4
stoichiometry N [4]: 4

KirBac3.1 S129C-F135C (Cys-less background C262S, C71V, C119V) crosslinked with dibromobimane (from UniProt D9N164 1-295) (natural protein)
stoichiometry N [5]: 4
stoichiometry N [6]: 4

KirBac3.1 A133C-T136C (Cys-less background C262S, C71V, C119V) crosslinked with dibromobimane (from UniProt D9N164 1-295) (natural protein)
stoichiometry N [7]: 4
stoichiometry N [8]: 4

KirBac3.1 A133C-T136C (Cys-less background C262S, C71V, C119V) crosslinked with MTS-1-MTS (from UniProt D9N164 1-295) (natural protein)
stoichiometry N [9]: 4
stoichiometry N [10]: 4

KirBac3.1 S129C-F135C (Cys-less background C262S, C71V, C119V), disulfide-linked (from UniProt D9N164 1-295) (natural protein)
stoichiometry N [11]: 4
stoichiometry N [12]: 4

— publication PMC7295778
